Experimental data taken from US6995018 (US Dept. of Health and Human Services, dated 2006).

Columns and labels:
[1] = target: T1, human complement Factor H (human, UniProt P08603 19-1231); assay: steady state fluorescence, titration of purified human Factor H with rDMP1
T1 construct: In some experiments Factor H is the endogenous protein of normal human serum; also called fH; purified human Factor H (Quidel)
Description: (§1) Steady state fluorescence studies were accomplished by titrating purified human complement Factor H with rBSP, rOPN, and rDMP1 followed by excitation at 295 nm and monitoring emission between 300 and 450 nm. The emission profile of Factor H alone yields a peak at 347 nm. The addition of rBSP, rOPN, or rDMP1 in nm increments causes a relative fluorescent intensity quenching. Conversion of the fluorescent intensity titration into a binding curve by determining the fraction of binding sites occupied as the fractional change in fluorescence quenching at 347 nm yields a saturable binding curve. […] Given that normal serum concentration of Factor H is ~0.5 mg/mL it is probable that virtually all BSP, OPN, and DMP1 in serum will be complexed with Factor H.

[2] = target: T2, αVβ3 integrin on murine erythroleukemia (MEL) cells (murine (MEL cells), UniProt P43406 31-1044; O54890 26-787); assay: inferred from MEL cell complement lysis assay with GRGDS peptide, αVβ3 antibody and RGD->KAE mutant
T2 construct: whole, on cells; also called integrins; cell surface integrins
T2 sequence (P43406 31-1044, chain 1 of 2): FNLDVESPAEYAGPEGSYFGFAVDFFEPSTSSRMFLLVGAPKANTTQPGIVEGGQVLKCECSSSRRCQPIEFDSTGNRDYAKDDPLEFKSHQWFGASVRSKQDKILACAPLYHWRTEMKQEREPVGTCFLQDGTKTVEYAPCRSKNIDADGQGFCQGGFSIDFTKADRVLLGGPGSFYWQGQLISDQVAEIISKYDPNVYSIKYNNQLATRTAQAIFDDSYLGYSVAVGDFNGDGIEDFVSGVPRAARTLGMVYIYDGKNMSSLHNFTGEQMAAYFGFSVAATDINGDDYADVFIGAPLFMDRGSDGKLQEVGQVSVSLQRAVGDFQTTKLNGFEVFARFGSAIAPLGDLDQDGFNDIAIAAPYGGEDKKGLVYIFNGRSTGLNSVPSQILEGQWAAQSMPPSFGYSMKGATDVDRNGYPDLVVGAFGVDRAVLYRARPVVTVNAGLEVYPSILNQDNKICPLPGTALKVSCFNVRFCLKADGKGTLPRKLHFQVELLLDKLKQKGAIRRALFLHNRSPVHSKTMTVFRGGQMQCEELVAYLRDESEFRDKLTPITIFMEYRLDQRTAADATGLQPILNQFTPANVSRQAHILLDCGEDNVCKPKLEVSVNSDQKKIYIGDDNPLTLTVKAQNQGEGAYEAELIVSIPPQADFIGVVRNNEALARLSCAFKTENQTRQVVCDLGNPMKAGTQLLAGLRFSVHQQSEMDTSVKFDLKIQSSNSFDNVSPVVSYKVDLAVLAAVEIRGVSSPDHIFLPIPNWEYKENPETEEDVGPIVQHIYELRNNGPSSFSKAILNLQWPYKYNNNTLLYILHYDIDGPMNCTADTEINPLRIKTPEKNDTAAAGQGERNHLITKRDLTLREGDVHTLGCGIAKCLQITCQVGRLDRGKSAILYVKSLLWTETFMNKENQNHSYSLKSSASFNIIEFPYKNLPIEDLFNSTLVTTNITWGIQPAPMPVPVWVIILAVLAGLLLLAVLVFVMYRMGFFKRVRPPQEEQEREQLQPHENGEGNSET
T2 sequence (O54890 26-787, chain 2 of 2): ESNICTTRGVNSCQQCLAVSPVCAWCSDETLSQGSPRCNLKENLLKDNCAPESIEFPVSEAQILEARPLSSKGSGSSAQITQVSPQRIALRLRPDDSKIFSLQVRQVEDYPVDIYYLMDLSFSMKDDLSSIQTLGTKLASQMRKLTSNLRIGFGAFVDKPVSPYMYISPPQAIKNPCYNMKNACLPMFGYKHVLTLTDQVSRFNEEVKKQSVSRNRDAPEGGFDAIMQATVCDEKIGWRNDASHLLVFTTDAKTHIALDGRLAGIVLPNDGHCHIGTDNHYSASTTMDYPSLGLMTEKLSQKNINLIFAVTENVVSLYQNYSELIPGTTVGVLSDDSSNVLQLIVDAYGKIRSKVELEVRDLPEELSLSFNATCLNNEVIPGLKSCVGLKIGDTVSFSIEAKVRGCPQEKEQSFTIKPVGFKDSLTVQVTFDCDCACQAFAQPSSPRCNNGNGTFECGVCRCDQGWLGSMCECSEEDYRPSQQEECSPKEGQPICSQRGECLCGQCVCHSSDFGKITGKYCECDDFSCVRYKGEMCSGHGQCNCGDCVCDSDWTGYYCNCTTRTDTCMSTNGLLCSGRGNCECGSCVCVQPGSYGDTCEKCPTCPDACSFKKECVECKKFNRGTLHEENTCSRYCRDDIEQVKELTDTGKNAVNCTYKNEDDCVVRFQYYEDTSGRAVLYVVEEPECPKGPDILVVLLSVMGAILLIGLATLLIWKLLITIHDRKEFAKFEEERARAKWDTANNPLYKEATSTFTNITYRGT
Description: MEL cells prepared as in FIG. 8 were treated with normal rBSP (10 μg/mL), rBSP whose RGD sequence had been mutated to KAE ([…]), and either GRGDS (SEQ ID NO: 10) peptide (400 μM) followed by rBSP or an αVβ3 antibody (1:4000) followed by rBSP for 10 minutes prior to the addition of normal human serum. The cells were then incubated for 10 minutes after which cell viability determined using the MTT assay (A). A cohort of MEL cells were pretreated with rOPN (10 μg/mL) alone, GRGDS (SEQ ID NO: 10) peptide followed by rOPN, the αVβ3 antibody followed by rOPN, or an anti-CD44 antibody (Chemicon, Co.) followed by rOPN, or hyaluronan (HA) followed by rOPN (B). Cells were then treated with normal human serum and viability assayed as in FIG. 8. […] Statistical significance was determined by analysis of variance. Percent cell viability was determined using A560 absorbance values of various conditions and a control where no serum had been added (100% viable). […]
Murine erytliroleukemia (MEL) cells (a gift of Dr. Marilyn Farquhar, Univ. CA San Diego.) grown in DMEM containing 10% fetal bovine serum and 4 mM glutamine were rinsed three times with gelatin veronal buffer with Mg_2^+ and EGTA (GVB-MgEGTA, Sigma, St. Louis, Mo.). […] Cell viability was determined spectrophotometrically by absorbance at 560 nm.

[3] = target: T1, human complement Factor H; assay: steady state tryptophan fluorescence quenching, titration of Factor H with BSP
Description: as §1

T1 sequence (P08603 19-1231 limits assumed): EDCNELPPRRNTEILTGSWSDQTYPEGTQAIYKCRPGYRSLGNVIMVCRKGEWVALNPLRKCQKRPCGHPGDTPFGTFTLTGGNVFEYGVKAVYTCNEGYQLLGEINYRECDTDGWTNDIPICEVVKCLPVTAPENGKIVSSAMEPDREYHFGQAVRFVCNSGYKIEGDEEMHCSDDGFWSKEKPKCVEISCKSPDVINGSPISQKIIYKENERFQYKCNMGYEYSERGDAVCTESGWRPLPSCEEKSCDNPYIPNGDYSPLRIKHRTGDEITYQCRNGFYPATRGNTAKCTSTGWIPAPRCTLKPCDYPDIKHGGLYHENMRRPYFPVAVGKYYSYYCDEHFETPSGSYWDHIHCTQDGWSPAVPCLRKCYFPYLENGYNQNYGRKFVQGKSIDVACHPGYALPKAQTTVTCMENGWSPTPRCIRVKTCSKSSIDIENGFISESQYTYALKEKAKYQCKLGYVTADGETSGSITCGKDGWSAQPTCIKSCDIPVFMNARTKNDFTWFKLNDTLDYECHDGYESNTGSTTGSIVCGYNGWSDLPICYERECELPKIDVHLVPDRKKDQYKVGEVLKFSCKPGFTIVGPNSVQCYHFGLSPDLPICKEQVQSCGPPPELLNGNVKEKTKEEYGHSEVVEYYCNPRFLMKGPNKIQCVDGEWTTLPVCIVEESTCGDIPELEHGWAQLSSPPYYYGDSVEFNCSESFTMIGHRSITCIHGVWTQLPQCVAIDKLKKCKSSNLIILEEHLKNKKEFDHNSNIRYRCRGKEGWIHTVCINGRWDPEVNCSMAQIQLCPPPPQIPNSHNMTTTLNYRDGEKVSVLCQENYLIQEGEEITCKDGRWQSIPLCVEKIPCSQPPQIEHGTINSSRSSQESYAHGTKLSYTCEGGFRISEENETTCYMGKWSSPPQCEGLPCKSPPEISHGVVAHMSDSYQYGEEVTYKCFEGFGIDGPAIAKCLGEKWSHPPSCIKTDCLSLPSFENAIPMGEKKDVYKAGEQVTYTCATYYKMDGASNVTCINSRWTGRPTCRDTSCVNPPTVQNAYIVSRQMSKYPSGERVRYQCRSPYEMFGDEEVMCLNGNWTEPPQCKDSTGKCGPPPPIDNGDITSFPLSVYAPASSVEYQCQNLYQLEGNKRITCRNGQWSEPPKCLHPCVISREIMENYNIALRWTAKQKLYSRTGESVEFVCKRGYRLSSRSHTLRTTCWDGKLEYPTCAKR

Row | stoichiometry (DMP1:Factor H) [1] [mol/mol] | binding result [2] | Kd [3] [nM] | stoichiometry (BSP:Factor H) [3] [mol/mol] | Binder
1 | 1 | – | – | – | recombinant dentin matrix protein 1 (rDMP1) (ligand) LPVTRYQNNESEDSEEWKGHLAQAPTPPLESSESSEGSKVSSEEQANEDPSDSTQSEEGLGSDDHQYIYRLAGGFSRSTGKGGDDKDDDEDDSGDDTFGDDDSGPGPKDRQEGGNSRLGSDEDSDDTIQASEESAPQGQDSAQDTTSESRELDNEDRVDSKPEGGDSTQESESEEHWVGGGSDGESSHGDGSELDDEGMQSDDPESIRSERGNSRMNSAGMKSKESGENSEQANTQDSGGSQLLEHPSRKIFRKSRISEEDDRSELDDNNTMEEVKSDSTENSNSRDTGLSQPRRDSKGDSQEDSKENLSQEESQNVDGPSSESSQEANLSSQENSSESQEEVVSESRGDNPDPTTSYVEDQEDSDSSEEDSSHTLSHSKSESREEQADSESSESLNFSEESPESPEDENSSSQEGLQSHSSSAESQSEESHSEEDDSDSQDSSRSKEDSNSTESKSSSEEDGQLKNIEIESRKLTVDAYHNKPIGDQDDNDCQDGY
2 | – | binds | ≤ 1 | 1 | recombinant human bone sialoprotein (rBSP) (ligand, post-translationally modified by the producing human marrow stromal fibroblasts (glycosylation, sulfation, phosphorylation; sites not stated), Range 17-317 follows the stated 16-residue leader; not checked against the listing; also called recombinant BSP; purified human BSP) FSMKNLHRRVKIEDSEENGVFKYRPRYYLYKHAYFYPHLKRFPVQGSSDSSEENGDDSSEEEEEEEETSNEGENNEESNEDEDSEAENTTLSATTLGYGEDATPGTGYTGLAAIQLPKKAGDITNKATKEKESDEEEEEEEEGNENEESEAEVDENEQGINGTSTNSTEAENGNGSSGGDNGEEGEEESVTGANAEGTTETGGQGKGTSKTTTSPNGGFEPTTPPQVYRTTSPPFGKTTTVEYEGEYEYTGVNEYDNGYEIYESENGEPRGDNYRAYEDEYSYFKGQGYDGYDGQNYYHHQ
